We go through one protein from article PMC7112428 (International Journal of Biological Macromolecules, 2018).

This series deals with the molecule itself. As to the kind of experiment: SEC.

B1: recombinant porcine aminopeptidase N ectodomain (residues 63-963) (domain or fragment, UniProt P15145 63-963, looked up)
chain: QSKPWNRYRLPTTLLPDSYNVTLRPYLTPNADGLYIFKGKSIVRLLCQEPTDVIIIHSKKLNYTTQGHMVVLRGVGDSQVPEIDRTELVELTEYLVVHLKGSLQPGHMYEMESEFQGELADDLAGFYRSEYMEGNVKKVLATTQMQSTDARKSFPCFDEPAMKATFNITLIHPNNLTALSNMPPKGSSTPLAEDPNWSVTEFETTPVMSTYLLAYIVSEFQSVNETAQNGVLIRIWARPNAIAEGHGMYALNVTGPILNFFANHYNTSYPLPKSDQIALPDFNAGAMENWGLVTYRENALLFDPQSSSISNKERVVTVIAHELAHQWFGNLVTLAWWNDLWLNEGFASYVEYLGADHAEPTWNLKDLIVPGDVYRVMAVDALASSHPLTTPAEEVNTPAQISEMFDSISYSKGASVIRMLSNFLTEDLFKEGLASYLHAFAYQNTTYLDLWEHLQKAVDAQTSIRLPDTVRAIMDRWTLQMGFPVITVDTKTGNISQKHFLLDSESNVTRSSAFDYLWIVPISSIKNGVMQDHYWLRDVSQAQNDLFKTASDDWVLLNVNVTGYFQVNYDEDNWRMIQHQLQTNLSVIPVINRAQVIYDSFNLATAHMVPVTLALDNTLFLNGEKEYMPWQAALSSLSYFSLMFDRSEVYGPMKKYLRKQVEPLFQHFETLTKNWTERPENLMDQYSEINAISTACSNGLPQCENLAKTLFDQWMSDPENNPIHPNLRSTIYCNAIAQGGQDQWDFAWGQLQQAQLVNEADKLRSALACSNEVWLLNRYLGYTLNPDLIRKQDATSTINSIASNVIGQPLAWDFVQSNWKKLFQDYGGGSFSFSNLIQGVTRRFSSEFELQQLEQFKKNNMDVGFGSGTRALEQALEKTKANIKWVKENKEVVLNWFIEHS
What is called stoichiometry N is a count of units in the complex or per binding partner. With B1, the “stoichiometry N” value was found to be 2.
